Results taken from US20220098307A1 (WUHAN YZY BIOPHARMA, published 2022).
Numbering of substitutions follows the chain as printed.

B1: CEA-M3-DG2D (bispecific antibody)
chain 1: QVQLVQSGSELKKPGASVKVSCKASGYTFTVFGMNWVRQAPGQGLEWMGWINTKTGEATYVEEFKGRFVFSLDTSVSTAYLQISSLKADDTAVYYCARWDFYDYVEAMDYWGQGTTVTVSSASTKGPSVFPLAPSSKSTSGGTAALGCLVKDYFPEPVTVSWNSGALTSGVHTFPAVLQSSGLYSLSSVVTVPSSSLGTQTYICNVNHKPSNTKVDKKVEPKSCGGGGSGGGGSQVQLVESGGGVVQPGRSLRLSCAASGFTFSTYAMNWVRQAPGKGLEWVARIRSKYNNYATYYADSVKDRFTISRDDSKNTLYLQMNSLRAEDTAVYYCARHGNFGNSYVSWFAYWGQGTLVTVSSASVAAPSVFIFPPSDEQLKSGTASVVCLLNNFYPREAKVQWKVDNALQSGNSQESVTEQDSKDSTYSLSSTLTLSKADYEKHKVYACEVTHQGLSSPVTKSFNRGECDKTHTCPPCPAPPVAGPSVFLFPPKPKDTLMISRTPEVTCVVVAVSHEAPEVQFNWYVDGVEVHNAKTKPREEQFNSTFRVVSVLTVVHQDWLNGKEYKCKVSNKGLPAPIEKTISKTKGQPREPQVYTLPPCRDELTKNQVSLWCLVKGFYPSDIAVEWESNGQPENNYKTTPPVLDSDGSFFLYSKLTVDKSRWQQGNVFSCSVMHEALHNHYTQKSLSLSPGK
chain 2: QTVVTQEPSLTVSPGGTVTLTCRSSTGAVTTSNYANWVQQKPGQAPRGLIGGTNKRAPGVPARFSGSLLGGKAALTLSGVQPEDEAEYYCALWYSNLWVFGGGTKVEIKSSASTKGPSVFPLAPSSKSTSGGTAALGCLVKDYFPEPVTVSWNSGALTSGVHTFPAVLQSSGLYSLSSVVTVPSSSLGTQTYICNVNHKPSNTKVDKKVEPKSC
heavy: QVQLVQSGSELKKPGASVKVSCKASGYTFTVFGMNWVRQAPGQGLEWMGWINTKTGEATYVEEFKGRFVFSLDTSVSTAYLQISSLKADDTAVYYCARWDFYDYVEAMDYWGQGTTVTVSSASTKGPSVFPLAPSSKSTSGGTAALGCLVKDYFPEPVTVSWNSGALTSGVHTFPAVLQSSGLYSLSSVVTVPSSSLGTQTYICNVNHKPSNTKVDKKVEPKSCDKTHTCPPCPAPPVAGPSVFLFPPKPKDTLMISRTPEVTCVVVAVSHEAPEVQFNWYVDGVEVHNAKTKPREEQFNSTFRVVSVLTVVHQDWLNGKEYKCKVSNKGLPAPIEKTISKTKGQPREPQVCTLPPSRDELTKNQVSLSCAVKGFYPSDIAVEWESNGQPENNYKTTPPVLDSDGSFFLVSKLTVDKSRWQQGNVFSCSVMHEALHNRFTQKSLSLSPGK
light: DIQMTQSPSSLSASVGDRVTITCKASQNVGTNVAWYQQKPGKAPKLLIYSASYRYSGVPSRFSGSGSGTDFTFTISSLQPEDIATYYCHQYYTYPLFTFGQGTKVEIKRTVAAPSVFIFPPSDEQLKSGTASVVCLLNNFYPREAKVQWKVDNALQSGNSQESVTEQDSKDSTYSLSSTLTLSKADYEKHKVYACEVTHQGLSSPVTKSFNRGEC
notes: structure 3; CEA x CD3; CH2 DG2DCH2
B2: CEA-M3-GG2 (bispecific antibody)
chain 1: B1 chain 1 with C475G, A510D, A515D
chain 2: B1 chain 2
heavy: B1 heavy with C233G, A268D, A273D
light: B1 light
notes: structure 3; CEA x CD3; CH2 GG2CH2
B3: CEA-M3-G2D (bispecific antibody)
chain 1: B1 chain 1 with A510D
chain 2: B1 chain 2
heavy: B1 heavy with A268D
light: B1 light
notes: structure 3; CEA x CD3; CH2 G2DCH2
B4: CEA-M3-SG2 (bispecific antibody)
chain 1: B1 chain 1 with C475S, A510D, A515D
chain 2: B1 chain 2
heavy: B1 heavy with C233S, A268D, A273D
light: B1 light
notes: structure 3 (fusion heavy chain, cross light chain, heavy, light; the light chain pairs with the heavy and with the fusion heavy chain); CEA x CD3; CH2 SG2CH2
B5: CEA-M3-PG2 (bispecific antibody)
chain 1: B1 chain 1 with C475P, A510D, A515D
chain 2: B1 chain 2
heavy: B1 heavy with C233P, A268D, A273D
light: B1 light
notes: structure 3; CEA x CD3; CH2 PG2CH2

target: T1, human CEA (human, UniProt P06731 35-685); assay: flow cytometry, human tumor cells (CEA+)
T1 sequence: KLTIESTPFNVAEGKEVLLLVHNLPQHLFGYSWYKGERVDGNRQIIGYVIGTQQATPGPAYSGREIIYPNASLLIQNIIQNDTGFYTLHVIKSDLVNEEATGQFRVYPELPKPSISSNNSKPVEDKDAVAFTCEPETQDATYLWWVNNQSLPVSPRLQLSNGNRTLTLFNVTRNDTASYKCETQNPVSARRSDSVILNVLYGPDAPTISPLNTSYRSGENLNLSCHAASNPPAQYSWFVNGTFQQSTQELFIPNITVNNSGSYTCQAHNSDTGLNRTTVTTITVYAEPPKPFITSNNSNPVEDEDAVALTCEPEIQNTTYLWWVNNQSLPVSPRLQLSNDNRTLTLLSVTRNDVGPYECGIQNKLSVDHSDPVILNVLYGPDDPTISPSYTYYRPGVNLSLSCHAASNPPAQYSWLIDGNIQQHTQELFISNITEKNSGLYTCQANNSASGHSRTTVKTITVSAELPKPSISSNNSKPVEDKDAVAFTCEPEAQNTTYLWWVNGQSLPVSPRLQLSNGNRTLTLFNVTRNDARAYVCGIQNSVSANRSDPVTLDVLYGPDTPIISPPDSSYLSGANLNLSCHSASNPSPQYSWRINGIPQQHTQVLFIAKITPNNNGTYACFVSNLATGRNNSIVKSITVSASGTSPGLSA
Description: (§1) 1) Cell preparation: T cells isolated from CD3-positive human whole blood were used for a CD3 end affinity detection of multifunctional antibody molecule; positive tumor cells of corresponding antigen were used for detecting affinity of tumor antigen; for example, CD38-positive MM. 1S cells (purchased from the Cell Resource Center of Shanghai Institutes for Biological Sciences, Chinese Academy of Sciences) or RPMI 8226 cells (purchased from the Cell Resource Center of Shanghai Institutes for Biological Sciences, Chinese Academy of Sciences) were used for CD38 antigen detection, and PD-L1 positive H358 cells (purchased from the Cell Resource Center of Shanghai Institutes for Biological Sciences, Chinese Academy of Sciences) were used for PD-L1 antigen detection, and so on. The cells were resuspended with 1% FBS-PBS, adjusted to a density of 4×10⁶/ml, and 50 μl of cells were taken from each well, and then plated at 2×10⁵ per well. Cell plating was operated on ice
(§2) 2) Addition of the antibody: according to the experimental design, the antibody was diluted gradually, and dilution of antibody was operated on ice. For example, the initial concentration of antibody for dilution was 3000 nM, and the antibody was diluted by 3 times with 11 concentration gradients. The diluted antibody was added to a cell well at 50 μl per well, mixed well, and shaked and incubated at 4° C. 1100 rpm/min for 2 h; after washing, the cells were resuspend in 1% FBS-PBS, and a diluted secondary antibody PE anti-human IgG FC (Biolegend, 409304) was added with a final concentration of 8 ug/ml and a volume of 50 μl/well. At the same time, a well only added with cells and secondary antibody was set as a control, the components were mixed well, and incubated under shaking at 1100 rpm/min at 4° C. for 1 h;
(§3) 5) Data analysis: the data was analyzed by a flow analysis software FlowJo 7.6 thereby obtaining an average fluorescence intensity of the specific antibody concentration, plotted by a Graphpad Prism 5 with the antibody concentration (nM) as an abscissa and the average fluorescence intensity as an ordinate; the EC50 value was calculated by the method of One site—Specific binding, and the EC50 value indicated the cell affinity of the antibody to the corresponding target antigen.

B1 and B2 are within 1.5-fold of each other in EC50: 34.2 nM for the first, 39.1 nM for the second.

B3 and B4 are within 1.5-fold of each other in EC50: 38.4 nM for the first, 30.5 nM for the second.

With B5 the EC50 was 41.9 nM.

target: T2, Human CD3ε (human, UniProt P07766 23-126); assay: flow cytometry, human T cells
T2 construct: CD3 on T cells isolated from human whole blood
Description: as §1, §2, §3

B1 and B2 are within 1.5-fold of each other in EC50: 611 nM for the first, 695 nM for the second.

B3 and B4 are within 1.5-fold of each other in EC50: 670 nM for the first, 631 nM for the second.

In the case of B5, the EC50 is reported as 654 nM.
